{"source": "IntAct's records for PubMed 38890443", "parents": {"B1": {"name": "E3 ubiquitin-protein ligase RNF26 (Homo sapiens), Q9BY78 (parent)", "chain": "MEAVYLVVNGLGLVLDVLTLVLDLNFLLVSSLLASLAWLLAFVYNLPHTVLTSLLHLGRGVLLSLLALIEAVVRFTCGGLQALCTLLYSCCSGLESLKLLGHLASHGALRSREILHRGVLNVVSSGHALLRQACDICAIAMSLVAYVINSLVNICLIGTQNLFSLVLALWDAVTGPLWRMTDVVAAFLAHISSSAVAMAILLWTPCQLALELLASAARLLASFVLVNLTGLVLLACVLAVTVTVLHPDFTLRLATQALSQLHARPSYHRLREDVMRLSRLALGSEAWRRVWSRSLQLASWPNRGGAPGAPQGDPMRVFSVRTRRQDTLPEAGRRSEAEEEEARTIRVTPVRGRERLNEEEPPGGQDPWKLLKEQEERKKCVICQDQSKTVLLLPCRHLCLCQACTEILMRHPVYHRNCPLCRRGILQTLNVYL", "partner": "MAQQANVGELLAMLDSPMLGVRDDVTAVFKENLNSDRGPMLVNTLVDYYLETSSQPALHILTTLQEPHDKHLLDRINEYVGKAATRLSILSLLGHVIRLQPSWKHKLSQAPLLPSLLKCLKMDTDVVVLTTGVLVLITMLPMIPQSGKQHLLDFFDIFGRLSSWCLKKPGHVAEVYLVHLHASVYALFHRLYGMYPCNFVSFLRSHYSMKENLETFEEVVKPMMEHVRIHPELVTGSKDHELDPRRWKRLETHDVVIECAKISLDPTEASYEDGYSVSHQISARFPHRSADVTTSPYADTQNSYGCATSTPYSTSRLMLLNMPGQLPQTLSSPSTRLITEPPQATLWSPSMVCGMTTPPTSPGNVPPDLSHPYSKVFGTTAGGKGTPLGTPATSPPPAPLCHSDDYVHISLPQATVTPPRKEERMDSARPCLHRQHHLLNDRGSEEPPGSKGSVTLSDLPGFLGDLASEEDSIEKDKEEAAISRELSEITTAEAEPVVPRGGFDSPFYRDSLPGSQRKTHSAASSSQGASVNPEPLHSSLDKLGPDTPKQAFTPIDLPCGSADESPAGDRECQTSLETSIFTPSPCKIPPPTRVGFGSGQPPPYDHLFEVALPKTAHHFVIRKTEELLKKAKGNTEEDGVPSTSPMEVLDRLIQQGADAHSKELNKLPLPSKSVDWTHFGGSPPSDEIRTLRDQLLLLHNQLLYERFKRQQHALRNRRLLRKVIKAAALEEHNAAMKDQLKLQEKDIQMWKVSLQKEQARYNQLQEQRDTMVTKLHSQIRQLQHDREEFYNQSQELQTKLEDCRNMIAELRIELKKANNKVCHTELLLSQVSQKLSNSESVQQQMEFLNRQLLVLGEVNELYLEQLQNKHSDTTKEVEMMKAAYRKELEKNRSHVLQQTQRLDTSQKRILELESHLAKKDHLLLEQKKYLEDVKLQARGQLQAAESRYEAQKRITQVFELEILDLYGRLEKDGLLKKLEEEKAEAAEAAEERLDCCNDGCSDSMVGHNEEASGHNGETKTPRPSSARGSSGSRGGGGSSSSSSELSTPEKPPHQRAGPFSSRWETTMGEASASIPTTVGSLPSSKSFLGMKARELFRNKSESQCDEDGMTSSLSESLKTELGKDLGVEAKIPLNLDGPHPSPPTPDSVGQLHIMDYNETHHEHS"}}}
{"variants_of": "B1", "settings": "with tsc1_human TSC1, Q92574"}
{"variant": "T348D", "effect of a mutation on the interaction": "increasing interaction"}
{"variants_of": "B1", "settings": "with tsc1_human TSC1, Q92574", "remark": "another data set of the same source"}
{"variant": "T348A", "effect of a mutation on the interaction": "decreasing interaction"}
